From patent US20230192896A1 (published 2023)
Where a chain is given by its changes, count along the chain named.

B1: BIIB-9-484 (antibody, V domains shown)
VH: EVQLVESGGGLVKPGGSLRLSCAASGFTFSSYSMNWVRQAPGKGLEWVSSISSSSSYIYYADSVKGRFTISRDNAKNSLYLQMNSLRAEDTAVYYCARDVGGYAGYYGMDVWGQGTTVTVSS
VL: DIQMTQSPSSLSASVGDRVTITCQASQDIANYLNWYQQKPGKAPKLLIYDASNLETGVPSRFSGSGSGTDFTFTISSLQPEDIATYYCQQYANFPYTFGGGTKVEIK
B2: BIIB-9-585 (antibody, V domains shown)
VH: QLQLQESGPGLVKPSETLSLTCTVSGGSISSSDYYWGWIRQPPGKGLEWIGSIYYSGSTYYNPSLKSRVTISVDTSKNQFSLKLSSVTAADTAVYYCAREVGTYYYGLDFWFDPWGQGTLVTVSS
VL: DIQMTQSPSSVSASVGDRVTITCRASQGISSWLAWYQQKPGKAPKLLIYAASSLQSGVPSRFSGSGSGTDFTLTISSLQPEDFATYYCQQANSYPITFGGGTKVEIK
B3: BIIB-9-414 (antibody, V domains shown)
VH: QVQLVQSGAEVKKPGASVKVSCKASGYTFTSYYMHWVRQAPGQGLEWMGIINPSGGSTSYAQKFQGRVTMTRDTSTSTVYMELSSLRSEDTAVYYCARDPYSYGMYYFDYWGQGTLVTVSS
VL: B2 VL with A91G, N92D, S93V, Y94F, I96F
B4: BIIB-9-1269 (antibody, V domains shown)
VH: QVQLVQSGAEVKKPGASVKVSCKASGYTFTSYYMHWVRQAPGQGLEWMGIINPSGGSTSYAQKFQGRVTMTRDTSTSTVYMELSSLRSEDTAVYYCARDRGQYYHFDLWGRGTLVTVSS
VL: B2 VL with T20A, N92S, Y94F, I96F
B5: BIIB-9-578 (antibody, V domains shown)
VH: QLQLQESGPGLVKPSETLSLTCTVSGGSISSSSYYWGWIRQPPGKGLEWIGSISYSGSTYYNPSLKSRVTISVDTSKNQFSLKLSSVTAADTAVYYCARDKYQDYSFDIWGQGTMVTVSS
VL: B2 VL with S30D, S93F, Y94L, I96F
B6: BIIB-9-1274 (antibody, V domains shown)
VH: QVQLVQSGAEVKKPGASVKVSCKASGYTFTSYYMHWVRQAPGQGLEWMGIINPSGGSTSYAQKFQGRVTMTRDTSTSTVYMELSSLRSEDTAVYYCARDTGGYAFDIWGQGTLVTVSS
VL: B2 VL with Y94F, I96F
B7: BIIB-9-564 (antibody, V domains shown)
VH: QVQLQESGPGLVKPSETLSLTCAVSGYSISSGYYWAWIRQPPGKGLEWIGSIYHSGSTYYNPSLKSRVTISVDTSKNQFSLKLSSVTAADTAVYYCARDPGYSWEYFDYWGQGTLVTVSS
VL: B2 VL with V11L, G28S, W32Y, A34N, A91S, N92V, S93A, Y94V, I96P
B8: BIIB-9-1283 (antibody, V domains shown)
VH: QVQLVQSGAEVKKPGASVKVSCKASGYTFTSYYMVWVRQAPGQGLEWMGIINPSGGSTSYAQKFQGRVTMTRDTSTSTVYMELSSLRSEDTAVYYCARVPTYRYSYLAFDIWGQGTMVTVSS
VL: B2 VL with N92S, Y94F, I96P
B9: BIIB-9-1272 (antibody, V domains shown)
VH: B6 VH
VL: B2 VL with N92S, Y94F, I96F
B10: BIIB-9-415 (antibody, V domains shown)
VH: QVQLVQSGAEVKKPGASVKVSCKASGYTFTSYYMHWVRQAPGQGLEWMGIINPSGGSTSYAQKFQGRVTMTRDTSTSTVYMELSSLRSEDTAVYYCARDGLSSGYYWDNWGQGTLVTVSS
VL: B2 VL with S30D, A91G, N92D, S93A, Y94F, I96F
B11: BIIB-9-568 (antibody, V domains shown)
VH: QLQLQESGPGLVKPSETLSLTCTVSGGSISSSSYYWGWIRQPPGKGLEWIGSIYYSGSTYYNPSLKSRVTISVDTSKNQFSLKLSSVTAADTAVYYCARDLGYAATYFDLWGRGTLVTVSS
VL: DIQMTQSPSSLSASVGDRVTITCQASQDISNYLNWYQQKPGKAPKLLIYDASNLETGVPSRFSGSGSGTDFTFTISSLQPEDIATYYCQQYDDYLTFGGGTKVEIK
B12: BIIB-9-615 (antibody, V domains shown)
VH: QVQLVQSGAEVKKPGASVKVSCKASGYTFTSYYMHWVRQAPGQGLEWMGIINPSGGSTSYAQKFQGRVTMTRDTSTSTVYMELSSLRSEDTAVYYCARDSPSSSSYWSLDLWGRGTLVTVSS
VL: EIVLTQSPATLSLSPGERATLSCRASQSVSSYLAWYQQKPGQAPRLLIYDASNRATGIPARFSGSGSGTDFTLTISSLEPEDFAVYYCQQSCHWPWTFGGGTKVEIK
B13: BIIB-9-1270 (antibody, V domains shown)
VH: B6 VH
VL: B12 VL with C92A, H93D, W94F, W96F
B14: BIIB-9-433 (antibody, V domains shown)
VH: B11 VH with S33R, L101A, A104S, T106E, Y107L, L110Y, R113Q
VL: B12 VL with C92S, H93A, W94Y, W96P
B15: BIIB-9-629 (antibody, V domains shown)
VH: QVQLVQSGAEVKKPGASVKVSCKASGYTFTSYYMHWVRQAPGQGLEWMGVINPSGGSTSYAQKFQGRVTMTRDTSTSTVYMELSSLRSEDTAVYYCARDPSQDYATGTGWFDPWGQGTLVTVSS
VL: DIQLTQSPSSLSASVGDRVTITCQASQDISNYLNWYQQKPGKAPKLLIYDASNLETGVPSRFSGSGSGTDFTFTISSLQPEDIATYYCQQLDSLPPTFGGGTKVEIK
B16: BIIB-9-475 (antibody, V domains shown)
VH: QVQLQESGPGLVKPSETLSLTCTVSGGSISSYYWSWIRQPPGKGLEWIGSIYYSGSTNYNPSLKSRVTISVDTSKNQFSLKLSSVTAADTAVYYCARDVGGYDYGVGAFDIWGQGTMVTVSS
VL: B15 VL with L4M, S30T, L91S, D92S, S93N, L94F, P96L
B17: BIIB-9-397 (antibody, V domains shown)
VH: QVQLQESGPGLVKPSETLSLTCAVSGYSISSGYYWAWIRQPPGKGLEWIGSIYHSGSTYYNPSLKSRVTISVDTSKNQFSLKLSSVTAADTAVYYCARDVWYVGGFDPWGQGTLVTVSS
VL: B15 VL with L4M, L91S, S93D, L94H
B18: BIIB-9-470 (antibody, V domains shown)
VH: EVQLVESGGGLVQPGGSLRLSCAASGFTFSSYWMSWVRQAPGKGLEWVANIKQDGSEKYYVDSVKGRFTISRDNAKNSLYLQMNSLRAEDTAVYYCARDAGIAWALDYWGQGTLVTVS
VL: DIQMTQSPSTLSASVGDRVTITCRASQSISSWLAWYQQKPGKAPKLLIYKASSLESGVPSRFSGSGSGTEFTLTISSLQPDDFATYYCQHPHSWTFGGGTKVEIK
B19: BIIB-9-465 (antibody, V domains shown)
VH: B4 VH with H35V, D99S, R100P, G101T, Q102D, Y103G, H105Y
VL: DIQMTQSPSTLSASVGDRVTITCRASQSINSWLAWYQQKPGKAPKLLISDASSLESGVPSRFSGSGSGTEFTLTISSLQPDDFATYYCQQYEIFPFTFGGGTKVEIK
B20: BIIB-9-606 (antibody, V domains shown)
VH: B3 VH with D99T, P100K, Y101W, Y103S, G104S, M105P, Y107G, F108M, Y110V, L116T
VL: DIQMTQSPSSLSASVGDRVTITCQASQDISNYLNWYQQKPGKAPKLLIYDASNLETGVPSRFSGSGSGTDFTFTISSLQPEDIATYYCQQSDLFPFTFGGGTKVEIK
B21: BIIB-9-582 (antibody, V domains shown)
VH: QVQLVQSGAEVKKPGASVKVSCKASGYTFTSYYMVWVRQAPGQGLEWMGIINPSGGSTSYAQKFQGRVTMTRDTSTSTVYMELSSLRSEDTAVYYCARAPTYFYSYGMDVWGQGTTVTVSS
VL: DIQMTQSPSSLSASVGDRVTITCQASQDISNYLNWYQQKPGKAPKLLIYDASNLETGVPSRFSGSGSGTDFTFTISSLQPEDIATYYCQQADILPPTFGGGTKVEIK
B22: BIIB-9-460 (antibody, V domains shown)
VH: QVQLVQSGAEVKKPGASVKVSCKASGYTFTSYYMHWVRQAPGQGLEWMGIINPSGGSTSYAQKFQGRVTMTRDTSTSTVYMELSSLRSEDTAVYYCARDISTDGESSLYYYMDVWGKGTTVTVSS
VL: EIVMTQSPATLSVSPGERATLSCRASQSVSSNLAWYQQKPGQAPRLLIYGASTRATGIPARFSGSGSGTEFTLTISSLQSEDFAVYYCQQHDNFPFTFGGGTKVEIK
B23: BIIB-9-590 (antibody, V domains shown)
VH: B10 VH with G100Q, L101E, S102W, S103A, G104Y, Y106G, W107M, N109V, L115T
VL: B12 VL with S91V, C92D, H93N, W94F, W96L
B24: BIIB-9-1271 (antibody, V domains shown)
VH: B6 VH
VL: B22 VL with E70D, S80P, V85T, H91G, D92F, N93S
B25: BIIB-9-1284 (antibody, V domains shown)
VH: B8 VH
VL: B22 VL with M4L, S30G, D92N, N93H, F94L, F96I

The binders below were run against free FIXa (activated Factor IX) (UniProt P00740 47-191; P00740 227-461) (assay: BLI).
With B1 the Kd was 37.7 nM.
With B2 the Kd was 12.4 nM.
With B3 the Kd was 16.6 nM.
Binder B4 has a Kd of 45.1 nM.
B5 was tested, and the Kd was 4.91 nM.
B6 gave a Kd of 28.4 nM.
B7 was tested, and the Kd was 17.4 nM.
B8 showed a Kd of 37 nM.
Binder B9 has a Kd of 45.6 nM.
B10 showed a Kd of 14.4 nM.
B11 showed a Kd of 5.5 nM.
For B12, the Kd was 23.2 nM.
Binder B13 has a Kd of 24.2 nM.
In the case of B14, the Kd is reported as 16.4 nM.
For B15, the Kd was 25.6 nM.
In the case of B16, the Kd is reported as 5.93 nM.
B17 gave a Kd of 4.89 nM.
B18 showed a Kd of 19.6 nM.
B19 showed a Kd of 19.8 nM.
B20 gave a Kd of 16 nM.
B21 was tested, and the Kd was 14.2 nM.
For B22, the Kd was 20.1 nM.
Work on B23 yielded a Kd of 11.3 nM.
With B24 the Kd was 44.5 nM.
B25 showed a Kd of 41.2 nM.
